Measurements taken from US20250368742A1 (D2M BIOTHERAPEUTICS, published 2025).
Positions count from the first letter of the chain named. Where two headings read alike, the source gives them in different places.

T1: MICA004-ECD-HISAvi (human)
T1 construct: also called MICA004 polypeptide
T1 chain: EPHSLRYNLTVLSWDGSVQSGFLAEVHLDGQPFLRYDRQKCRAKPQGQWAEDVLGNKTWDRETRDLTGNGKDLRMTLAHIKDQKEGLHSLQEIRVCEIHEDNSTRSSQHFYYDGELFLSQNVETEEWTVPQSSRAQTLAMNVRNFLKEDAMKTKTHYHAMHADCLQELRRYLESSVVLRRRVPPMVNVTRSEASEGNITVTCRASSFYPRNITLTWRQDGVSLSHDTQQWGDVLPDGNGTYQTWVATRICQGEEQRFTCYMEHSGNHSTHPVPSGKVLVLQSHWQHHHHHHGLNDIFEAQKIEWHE

T2: MICA008-ECD-HISAvi (human)
T2 construct: Two sources under one name in the two kinetic assays; also called MICA008 polypeptide
T2 chain: T1 chain with V122L, S175G, R181T, T213I, Q251R

T3: MICB005-ECD-HISAvi (human, UniProt Q29980 24-309)
T3 construct: Two sources under one name in the two kinetic assays; also called MICB005 polypeptide
T3 sequence: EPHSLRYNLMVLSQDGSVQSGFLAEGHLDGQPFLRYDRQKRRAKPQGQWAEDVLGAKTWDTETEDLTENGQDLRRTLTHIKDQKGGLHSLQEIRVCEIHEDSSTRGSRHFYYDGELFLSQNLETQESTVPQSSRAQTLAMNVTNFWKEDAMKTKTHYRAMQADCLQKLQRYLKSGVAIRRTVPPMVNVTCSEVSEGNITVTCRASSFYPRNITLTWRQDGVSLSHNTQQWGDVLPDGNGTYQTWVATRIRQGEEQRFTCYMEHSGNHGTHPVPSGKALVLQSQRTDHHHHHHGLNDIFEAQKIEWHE

T4: MICA002-ECD-HISAvi (human, UniProt Q29983 24-308)
T4 construct: also called MICA002 polypeptide
T4 chain: T1 chain with W14G, Y36C, V122L, V129M, E173K, S175G, R181T, S206G, R210W, T215S

T5: human MICA002 on cells (human)
T5 chain: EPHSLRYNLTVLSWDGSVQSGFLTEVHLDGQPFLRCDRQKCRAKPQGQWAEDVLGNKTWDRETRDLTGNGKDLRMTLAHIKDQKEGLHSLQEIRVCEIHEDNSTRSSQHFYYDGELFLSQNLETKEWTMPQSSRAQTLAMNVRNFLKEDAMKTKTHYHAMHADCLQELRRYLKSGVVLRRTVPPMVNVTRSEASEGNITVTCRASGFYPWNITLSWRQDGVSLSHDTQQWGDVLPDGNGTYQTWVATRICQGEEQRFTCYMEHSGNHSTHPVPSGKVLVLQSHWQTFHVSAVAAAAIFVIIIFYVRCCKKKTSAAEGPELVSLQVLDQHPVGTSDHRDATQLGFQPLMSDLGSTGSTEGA

B1: 1D5 (antibody, human IgG1, kappa, V domains shown)
VH: EIQLQQSGPELVKPGASVKVSCKASGYAFTSQNIYWVKQSHGKSLEWIGYIEPYNVVPMYNPKFKGKATLTVDKSSSSAYIHLNSLTSEDSAIYYCARSGSSNFDYWGQGTTLTVSS
VL: EIILTQSPTTMAASPGEKITITCSASSSISSHYLHWYQQKSGFSPKLLIYRTSNLASGVPARFSGSGSGTSYSLTIGTMEAEDVATYYCQQGSSLPLTFGAGTKVEIKR
notes: also called ID5
B2: 3F9 (antibody, human IgG1, kappa, V domains shown)
VH: QVQLVESGGGLVKPGGSLRLSCAASGFTFSNYAMSWIRQAPGKGLEWVSYISPGGDYIYYADSVKGRFTISRDNAKNSLYLQMNSLRAEDTAVYYCTTDRRHYGSYAMDYWGQGTLVTVSS
VL: DIVMTQSPLSLPVTPGEPASISCRSSKSLLHSNLNTYLYWFLQKPGQSPQILIYRMSNLASGVPDRFSGSGSGTAFTLKISRVEAEDVGVYYCMQHLEYPFTFGPGTKLEIKR
notes: also called benchmark 3F9

Experiments:
MICA004-ECD-HISAvi [1] = target: T1, MICA004-ECD-HISAvi; experiment: SPR (Carterra); antibody captured by anti-human Fc, monomeric ECD antigen injected
Experimental: (§1) The dissociation kinetics were monitored for approximately 10 minutes. The chip surface was regenerated between binding cycles with 10 mM glycine HCl, pH 1.7. Binding kinetics were analyzed using software supplied by the manufacturer.

MICA008-ECD-HISAvi [2] = target: T2, MICA008-ECD-HISAvi; experiment: as above
Experimental: as §1

MICB005-ECD-HISAvi [3] = target: T3, MICB005-ECD-HISAvi; experiment: as above
Experimental: as §1

MICA002-ECD-HISAvi [4] = target: T4, MICA002-ECD-HISAvi; experiment: as above
Experimental: as §1

human MICB005 on cells [5] = target: T6, human MICB005 on cells (human); experiment: flow cytometry on CHO-MICB005 cells; column HSA_2w (2 weeks in human serum at 37 C)
T6 construct: whole, on cells; also called CHO-MICB005; C1R-MICB005
Experimental: (§2) The plate was centrifuged, and cells were washed with PBS three times. […] After incubation for 30 minutes at room temperature, cells were washed with PBS twice. Signals of APC were determined by flow cytometry (Attune™ CytPix™, ThermoFisher) within the population of live cells (viability dye PI negative).
(§3) The EC50 values were calculated based on non-linear fitting curves by GraphPad Prism software.

human MICA008 on cells = target: T7, human MICA008 on cells (human); experiment: flow cytometry, HeLa cells (MICA008)
T7 construct: whole, on cells; also called CHO-MICA008; C1R-MICA008
Experimental: (§4) IgG1 is an isotype control (IgG). The antibody binding signals of APC (gMFI) to MICA/B were measured by flow cytometry.
(§5) After an incubation time of 30 minutes, the plate was centrifuged and cells were washed with PBS three times. […] After mixing for 30 minutes at room temperature, cells were washed with PBS twice. Fluorescent signal was detected and quantified by flow cytometry (Attune™ CytPix™, ThermoFisher) within the population of live cells (viability dye PI negative).

human MICB005 on cells [6] = target: T6, human MICB005 on cells; experiment: flow cytometry, CHO-MICB005 cells
human MICA004 on cells [7] = target: T8, human MICA004 on cells (human); experiment: flow cytometry, CHO-MICA004 cells
T8 construct: whole, on cells; also called CHO-MICA004; C1R-MICA004

MICA004-ECD-HISAvi [8] = target: T1, MICA004-ECD-HISAvi; experiment: SPR (Carterra); antibody captured by anti-human Fc, monomeric ECD antigen injected
Experimental: as §1

MICA008-ECD-HISAvi [9] = target: T2, MICA008-ECD-HISAvi; experiment: as above
Experimental: as §1

MICB005-ECD-HISAvi [10] = target: T3, MICB005-ECD-HISAvi; experiment: as above; remark: listed apart in the source
Experimental: as §1

MICA002-ECD-HISAvi [11] = target: T4, MICA002-ECD-HISAvi; experiment: as above
Experimental: as §1

human MICA002 on cells = target: T5, human MICA002 on cells; experiment: flow cytometry, CHO-MICA002 cells
human MICB005 on cells [12] = target: T6, human MICB005 on cells; experiment: flow cytometry on CHO-MICB005 cells; column Control_2w (control of the 2-week experiment)
Experimental: as §2, §3

human MICA004 on cells [13] = target: T8, human MICA004 on cells; experiment: flow cytometry, CHO-MICA004 cells; remark: listed apart in the source
Experimental: as §4, §5

T7 sequence (Q29983 whole entry): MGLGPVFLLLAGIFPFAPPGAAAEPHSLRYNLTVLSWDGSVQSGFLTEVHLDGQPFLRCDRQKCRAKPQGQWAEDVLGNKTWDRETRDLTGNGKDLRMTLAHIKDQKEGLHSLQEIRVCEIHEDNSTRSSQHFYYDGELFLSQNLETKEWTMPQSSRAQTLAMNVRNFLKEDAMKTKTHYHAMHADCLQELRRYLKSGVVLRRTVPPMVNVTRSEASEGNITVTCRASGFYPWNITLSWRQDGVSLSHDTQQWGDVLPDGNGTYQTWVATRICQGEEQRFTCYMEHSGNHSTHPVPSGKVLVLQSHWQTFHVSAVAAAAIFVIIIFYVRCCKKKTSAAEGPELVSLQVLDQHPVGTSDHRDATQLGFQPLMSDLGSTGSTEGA
T8 sequence (Q29983 whole entry): as above

Row | Binder | Kd (MICA004-ECD-HISAvi [1]) | Kd (MICA008-ECD-HISAvi [2]) | Kd (MICB005-ECD-HISAvi [3]) | Kd (MICA002-ECD-HISAvi [4]) | EC50 (human MICB005 on cells [5]) | EC50 (human MICA008 on cells) | EC50 (human MICB005 on cells [6]) | EC50 (human MICA004 on cells [7]) | Kd (MICA004-ECD-HISAvi [8]) | Kd (MICA008-ECD-HISAvi [9]) | Kd (MICB005-ECD-HISAvi [10]) | Kd (MICA002-ECD-HISAvi [11]) | EC50 (human MICA002 on cells) | EC50 (human MICB005 on cells [12]) | EC50 (human MICA004 on cells [13])
1 | B1 | 1.35 nM | 1.79 nM | 2.3 nM | 0.47 nM | 0.287 µg/mL | 0.034 µg/mL | 0.198 µg/mL | 0.193 µg/mL | 0.52 nM | 0.269 nM | 0.96 nM | 0.032 nM | 0.301 µg/mL | 0.264 µg/mL | 0.157 µg/mL
2 | B2 | 4.05 nM | 2.82 nM | 9.29 nM | 5.67 nM | 0.784 µg/mL | 0.115 µg/mL | 1.08 µg/mL | 0.89 µg/mL | 2.78 nM | 2 nM | 5.47 nM | 1.65 nM | 0.857 µg/mL | 0.956 µg/mL | 0.443 µg/mL
